Experimental data taken from publication PMC6940986, “Structural Insights into the Intracellular Region of the Human Magnesium Transport Mediator CNNM4” (International Journal of Molecular Sciences, 2019).

B1: CNNM4_(cNMP) (human CNNM4 cyclic nucleotide monophosphate binding-like domain, residues 545-730) [modified: SeMet labeled in the crystals; SeMet labeled in the crystals] [human] / itself (parent)
chain: KISPQLLLAAHRFLATEVSQFSPSLISEKILLRLLKYPDVIQELKFDEHNKYYARHYLYTRNKPADYFILILQGKVEVEAGKENMKFETGAFSYYGTMALTSVPSDRSPAHPTPLSRSASLSYPDRTDVSTAATLAGSSNQFGSSVLGQYISDFSVRALVDLQYIKITRQQYQNGLLASRMENSPQ
B2: CNNM4_(BAT-cNMP-Ctail) (complete intracellular region of human CNNM4, residues 356-775) [human] / itself (parent)
chain: KEELNMIQGALELRTKTVEDIMTQLQDCFMIRSDAILDFNTMSEIMESGYTRIPVFEDEQSNIVDILYVKDLAFVDPDDCTPLKTITRFYNHPVHFVFHDTKLDAMLEEFKKGKSHLAIVQKVNNEGEGDPFYEVLGLVTLEDVIEEIIKSEILDESDMYTDNRSRKRVSEKNKRDFSAFKDADNELKVKISPQLLLAAHRFLATEVSQFSPSLISEKILLRLLKYPDVIQELKFDEHNKYYARHYLYTRNKPADYFILILQGKVEVEAGKENMKFETGAFSYYGTMALTSVPSDRSPAHPTPLSRSASLSYPDRTDVSTAATLAGSSNQFGSSVLGQYISDFSVRALVDLQYIKITRQQYQNGLLASRMENSPQFPIDGCTTHMENLAEKSELPVVDETTTLLNERNSLLHKASHENAI

Key:
[1] = variants of: B1; assay: SEC-MALS; settings: with itself, monomer Mw = 20936.78 Da
[2] = variants of: B2; assay: SEC-MALS; settings: with itself, monomer MW = 47,861.17 Da

Variant	screen value ([1]; 1 mg/mL (dotted lines)) [Da]	screen value ([1]; 10 mg/mL (solid lines)) [Da]	screen value ([2]; 1 mg/mL (dotted lines)) [Da]	screen value ([2]; 10 mg/mL (solid lines)) [Da]
chain 1 F87A	21700	26400		
chain 1 F276A			49200	60900
